B1: ZNF649 (parent)
chain: DECEKAYFYMSCLVKHKRIHSREK
B2: CCND1 (parent)
chain: PEAEENKQIIRKHAQTFVALCATD

Variants of: B1
Assay: protein stability index of a GFP-peptide fusion (GPS, HEK-293T) (PSI 1-6); higher = more stable
Conditions: c terminus: a fixed tail appended
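Also: lentivirally expressed fusions sorted by FACS into six bins by GFP to DsRed ratio, PSI derived from sequencing read proportions per bin multiplied by bin number.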

| Variant | protein stability index |
| --- | --- |
| S21W | 1.61 |
| S21C | 3.33 |
| S21V | 2.65 |
| S21I | 2.61 |
| S21A | 2.48 |
| S21T | 2.15 |
| S21G | 2.29 |
| S21F | 1.91 |
| S21N | 2.98 |
| S21M | 2.13 |
| S21L | 2.14 |
| S21H | 2.53 |
| S21Y | 1.87 |
| S21Q | 2.95 |
| S21E | 2.85 |
| S21R | 2.58 |
| S21P | 2.08 |
| S21D | 2.61 |
| S21K | 2.77 |
| K24P | 2.46 |
| K24L | 1.75 |
| K24D | 3.02 |
| K24M | 1.97 |

| Variant | protein stability index |
| --- | --- |
| K24R | 2.42 |
| K24S | 3.13 |
| K24I | 2.12 |
| K24C | 1.55 |
| K24Y | 2.05 |
| K24H | 2.72 |
| K24W | 1.92 |
| K24T | 1.98 |
| K24G | 2.31 |
| K24A | 2.1 |
| K24E | 3.45 |
| K24V | 2.05 |
| K24Q | 2.56 |
| K24F | 1.85 |
| K24N | 2.54 |
| K17H | 2.05 |
| K17G | 2.42 |
| K17T | 2.27 |
| K17A | 2.94 |
| K17W | 2 |
| K17S | 2.19 |
| K17P | 2.35 |
| K17M | 1.61 |

| Variant | protein stability index |
| --- | --- |
| K17E | 2.54 |
| K17N | 2.45 |
| K17V | 2.19 |
| K17Q | 2.3 |
| K17I | 1.68 |
| K17F | 2.83 |
| K17L | 1.91 |
| K17C | 1.83 |
| K17R | 2.39 |
| K17Y | 2.14 |
| K17D | 2.85 |
| H20V | 2.24 |
| H20D | 3.33 |
| H20S | 2.37 |
| H20I | 2.09 |
| H20G | 2.55 |
| H20Q | 2.6 |
| H20E | 3.6 |
| H20C | 2.92 |
| H20T | 2.12 |
| H20A | 2.22 |
| H20M | 2.1 |
| H20K | 2.6 |

| Variant | protein stability index |
| --- | --- |
| H20W | 2.4 |
| H20Y | 2.59 |
| H20N | 2.57 |
| H20F | 2.88 |
| H20P | 3.15 |
| H20R | 2.59 |
| H20L | 2.48 |
| E23Q | 2.99 |
| E23W | 2.23 |
| E23T | 2.48 |
| E23S | 2.23 |
| E23V | 2.2 |
| E23H | 2.36 |
| E23C | 3.15 |
| E23Y | 2.17 |
| E23L | 2.99 |
| E23R | 3.04 |
| E23M | 1.8 |
| E23D | 2.81 |
| E23P | 2.1 |
| E23I | 2.42 |
| E23K | 2.7 |
| E23A | 3.48 |

| Variant | protein stability index |
| --- | --- |
| E23G | 2.62 |
| E23F | 2.15 |
| E23N | 2.38 |
| K15Y | 1.92 |
| K15S | 2.34 |
| K15V | 1.75 |
| K15T | 2.16 |
| K15W | 1.53 |
| K15N | 3.16 |
| K15P | 2.02 |
| K15Q | 2.3 |
| K15R | 2.12 |
| K15M | 1.9 |
| R22Y | 2.16 |
| R22D | 2.8 |
| R22A | 2.54 |
| R22P | 2.89 |
| R22H | 2.39 |
| R22V | 2.32 |
| R22N | 2.82 |
| R22E | 2.89 |
| R22I | 2.24 |
| R22M | 2.22 |

| Variant | protein stability index |
| --- | --- |
| R22T | 2.38 |
| R22K | 3.08 |
| R22W | 1.71 |
| R22C | 2.36 |
| R22S | 2.08 |
| R22Q | 2.28 |
| R22L | 1.43 |
| R22G | 2.19 |
| R22F | 2.09 |
| H16W | 2.29 |
| H16T | 2.56 |
| H16S | 3.06 |
| H16I | 1.69 |
| H16R | 2.82 |
| H16A | 2.51 |
| H16M | 1.98 |
| H16E | 3.53 |
| H16D | 3.25 |
| H16Y | 2.11 |
| H16V | 1.61 |
| H16P | 2.92 |
| H16K | 2.65 |
| H16Q | 2.64 |

| Variant | protein stability index |
| --- | --- |
| H16L | 1.84 |
| H16N | 2.75 |
| H16C | 1.76 |
| H16G | 3.24 |
| H16F | 1.79 |
| R18M | 2.53 |
| R18Q | 2.56 |
| R18C | 2.32 |
| R18G | 2.72 |
| R18W | 2.34 |
| R18L | 1.73 |
| R18N | 3.21 |
| R18Y | 2.52 |
| R18A | 2.53 |
| R18D | 2.87 |
| R18I | 2.08 |
| R18H | 2.62 |
| R18K | 2.79 |
| R18P | 2.48 |
| R18V | 2.36 |
| R18T | 2.61 |
| R18S | 2.56 |
| R18E | 2.59 |

| Variant | protein stability index |
| --- | --- |
| R18F | 2.4 |
| I19K | 2.9 |
| I19D | 3.59 |
| I19S | 3.36 |
| I19E | 3.93 |
| I19R | 3.19 |
| I19C | 3.2 |
| I19W | 2.81 |
| I19Q | 3.42 |
| I19A | 3.26 |
| I19L | 2.4 |
| I19H | 3.15 |
| I19T | 2.98 |
| I19N | 2.97 |
| I19F | 2.53 |
| I19Y | 2.34 |
| I19G | 3.27 |
| I19M | 2.66 |
| I19V | 3.18 |
| I19P | 3.3 |

Variants of: B2
Assay: as above
Conditions: c terminus: a fixed tail appended

| Variant | protein stability index |
| --- | --- |
| K7Q | 2.98 |
| K7G | 3.26 |
| K7M | 3.17 |
| K7P | 3.19 |
| K7H | 3.36 |
| K7R | 3.25 |
| K7D | 3.69 |
| K7A | 3.37 |
| K7F | 2.71 |
| K7E | 3.84 |
| K7V | 2.54 |
| K7S | 2.53 |
| K7T | 2.64 |
| K7N | 3.78 |
| K7Y | 2.62 |
| K7L | 2.95 |
| K7C | 2.92 |
| K7I | 2.6 |
| K7W | 2.61 |
| E2A | 2.54 |
| E2Q | 2.53 |
| E2L | 2.08 |
| E2V | 2.8 |
| E2Y | 2.69 |
| E2M | 2.98 |
| E2W | 1.81 |

| Variant | protein stability index |
| --- | --- |
| E2H | 2.34 |
| E2G | 2.92 |
| E2D | 2.75 |
| E2R | 1.87 |
| E2N | 2.32 |
| E2S | 2.4 |
| E2F | 2.14 |
| E2T | 2.29 |
| E2I | 2.27 |
| E2C | 2.13 |
| E2K | 2.73 |
| E2P | 2.83 |
| I9A | 3.74 |
| P1E | 3.45 |
| P1D | 3.29 |
| P1G | 2.78 |
| P1R | 2.59 |
| P1I | 2.36 |
| P1H | 3.19 |
| P1F | 2.44 |
| P1Y | 3.2 |
| P1L | 2.76 |
| P1N | 2.52 |
| P1V | 2.66 |
| P1Q | 2.78 |
| P1W | 3.02 |

| Variant | protein stability index |
| --- | --- |
| P1M | 2.68 |
| P1T | 2.18 |
| P1S | 2.34 |
| P1K | 2.07 |
| P1A | 3.14 |
| P1C | 1.97 |
| Q8W | 2.05 |
| Q8A | 2.77 |
| Q8L | 2.45 |
| Q8H | 3.22 |
| Q8P | 1.95 |
| Q8I | 2.19 |
| Q8G | 2.85 |
| Q8K | 2.33 |
| Q8Y | 2.55 |
| Q8D | 3.54 |
| Q8N | 3.13 |
| Q8M | 2.85 |
| Q8E | 3.48 |
| Q8V | 2.07 |
| Q8C | 2.24 |
| Q8S | 2.58 |
| Q8T | 1.7 |
| Q8R | 3.07 |
| Q8F | 2.24 |
| E4V | 2.38 |

| Variant | protein stability index |
| --- | --- |
| E4N | 2.36 |
| E4D | 2.64 |
| E4K | 2.04 |
| E4H | 2.67 |
| E4A | 2.47 |
| E4W | 1.95 |
| E4I | 2.2 |
| E4Y | 2.08 |
| E4M | 2.23 |
| E4P | 3.27 |
| E4F | 1.92 |
| E4C | 3.62 |
| E4T | 2.1 |
| E4Q | 2.39 |
| E4S | 2.21 |
| E4G | 2.42 |
| E4L | 2.37 |
| E4R | 2.33 |
| N6I | 2.26 |
| N6V | 1.85 |
| N6K | 2.38 |
| N6H | 3.04 |
| N6A | 2.14 |
| N6Q | 2.59 |
| N6W | 2.42 |
| N6E | 2.92 |

| Variant | protein stability index |
| --- | --- |
| N6T | 2 |
| N6R | 2.22 |
| N6S | 2.12 |
| N6G | 2.35 |
| N6F | 2.17 |
| N6P | 2.12 |
| N6L | 1.88 |
| N6Y | 3.05 |
| N6C | 1.93 |
| N6M | 2.39 |
| N6D | 2.79 |
| A3R | 3.26 |
| A3Y | 2.81 |
| A3H | 2.02 |
| A3M | 2.81 |
| A3Q | 2.86 |
| A3V | 3 |
| A3I | 2.93 |
| A3L | 2.89 |
| A3D | 3.27 |
| A3K | 2.8 |
| A3G | 2.8 |
| A3E | 3.02 |
| A3F | 2.71 |
| A3T | 2.15 |
| A3P | 2.43 |

| Variant | protein stability index |
| --- | --- |
| A3C | 2.31 |
| A3W | 2.85 |
| A3S | 2.46 |
| A3N | 3.15 |
| E5A | 2.05 |
| E5Q | 2.33 |
| E5F | 2.12 |
| E5G | 2.47 |
| E5L | 1.91 |
| E5Y | 2.21 |
| E5M | 2.99 |
| E5I | 2.05 |
| E5S | 1.79 |
| E5N | 2.25 |
| E5K | 2.17 |
| E5C | 1.86 |
| E5P | 2.33 |
| E5D | 2.93 |
| E5V | 2.55 |
| E5W | 2.04 |
| E5H | 2.24 |
| E5R | 1.93 |
| E5T | 1.69 |
